± gives the uncertainty stated by the source.
experiment: amyloid nucleation score (Sup35N fusion, yeast selection) (log enrichment); library NNK2; higher = more nucleation; inactive = no reads after selection
Method in brief: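 Peptides of 20 random codons, each fused to Sup35N, were expressed in psi-negative yeast. Cells were induced with 100 μM copper sulfate for 24 hours and grown 7 days at 30°C on medium lacking adenine and uracil, and plasmid inserts before and after selection were Illumina-sequenced. Nucleation scores are DiMSum log enrichments of output over input reads, centred on the mode score of non-aggregating sequences, and sequences under 100 input reads were excluded.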

Which amyloid nucleation score does the source give for RVTSEIWGCGGGFREECIKE here?
Its amyloid nucleation score is 0.143 ± 0.5.

Which amyloid nucleation score does the source give for RVVGPFFMVFVLTDMGFWVT here?
The amyloid nucleation score was “inactive”.

With RVWDNSVLGWQQGFSTVERV as the substance, how does the amyloid nucleation score read?
Its amyloid nucleation score is 0.766 ± 0.3.

With RVYMRISFSLSLLIAMSNLI as the substance, how does the amyloid nucleation score read?
The amyloid nucleation score was -0.315 ± 0.64.

With RWRIARMITPNLPELLSLYR as the substance, how does the amyloid nucleation score read?
The amyloid nucleation score was 2.93 ± 0.059.

Which amyloid nucleation score does the source give for RWTKGCDSNCIWF here?
The amyloid nucleation score was -0.502 ± 0.25.

With RWVSGQTYVVLSIVR as the substance, how does the amyloid nucleation score read?
The amyloid nucleation score was 0.242 ± 0.28.

For RYALNYTIPEPYWT, which amyloid nucleation score is on record?
The amyloid nucleation score was -0.576 ± 0.55.

Which amyloid nucleation score does the source give for RYDSMIHRSVGWPGSYNKGH here?
Its amyloid nucleation score is -0.287 ± 0.31.

Which amyloid nucleation score does the source give for RYGFSVSITMIFYRGGFCRW here?
The amyloid nucleation score was “inactive”.

For RYGVRSQCYGVTKRLFAITA, which amyloid nucleation score is on record?
Its amyloid nucleation score is 0.951 ± 0.33.

For RYHWEVLK, which amyloid nucleation score is on record?
Its amyloid nucleation score is 0.082 ± 1.

For RYRELVGVKCMV, which amyloid nucleation score is on record?
Its amyloid nucleation score is 0.978 ± 0.74.

With RYRLISTTFGVAHSFEPPRL as the substance, how does the amyloid nucleation score read?
Its amyloid nucleation score is 4.26 ± 0.059.

Which amyloid nucleation score does the source give for RYRVRKCSLANWDEWTTIGC here?
The amyloid nucleation score was 1.67 ± 0.19.

With RYVNVCYNSSAWGLFGTTHI as the substance, how does the amyloid nucleation score read?
The amyloid nucleation score was “inactive”.

With RYVQLIDHWSNGIVKVVGVL as the substance, how does the amyloid nucleation score read?
The amyloid nucleation score was 0.783 ± 0.56.

Which amyloid nucleation score does the source give for RYVVCNGRNLELLDFMNSRS here?
The amyloid nucleation score was -0.74 ± 1.1.

For RYWTSIGCGR, which amyloid nucleation score is on record?
The amyloid nucleation score was 0.589 ± 0.32.

Which amyloid nucleation score does the source give for SACIILI here?
The amyloid nucleation score was 1.65 ± 0.15.

Which amyloid nucleation score does the source give for SADRECCQHEFGASPRLRVG here?
Its amyloid nucleation score is 4.907 ± 0.041.

Which amyloid nucleation score does the source give for SAFIVNCNLINAQERDFKSD here?
The amyloid nucleation score was 6.682 ± 0.034.

Which amyloid nucleation score does the source give for SAGHSKGLQDVAPPRIFMVS here?
Its amyloid nucleation score is “inactive”.

With SAGVEAREMRTSYLGSSEVG as the substance, how does the amyloid nucleation score read?
The amyloid nucleation score was 1.28 ± 0.32.

For SAHLYALGNSRHFIYVPVEL, which amyloid nucleation score is on record?
Its amyloid nucleation score is “inactive”.

For SALCNDVVRPMMVFSENCAK, which amyloid nucleation score is on record?
The amyloid nucleation score was 0.225 ± 0.31.

With SALNYSFFLL as the substance, how does the amyloid nucleation score read?
The amyloid nucleation score was -0.27 ± 1.1.

For SAMSCPTKSAELRKCSYHPS, which amyloid nucleation score is on record?
The amyloid nucleation score was 0.246 ± 0.27.

Which amyloid nucleation score does the source give for SASWGLQSYNSRCGRLTNRF here?
The amyloid nucleation score was 0.524 ± 0.81.

With SAWVTNIFDNKLCVAVTEFR as the substance, how does the amyloid nucleation score read?
The amyloid nucleation score was 4.04 ± 0.06.

With SCCCYMIGKGIPQM as the substance, how does the amyloid nucleation score read?
The amyloid nucleation score was 0.394 ± 0.3.

For SCCEGISSVNNLFMRRRGIE, which amyloid nucleation score is on record?
The amyloid nucleation score was 0.201 ± 0.53.

Which amyloid nucleation score does the source give for SCDVTHGGLRQSKHGSGESG here?
The amyloid nucleation score was 7.7 ± 0.083.

Which amyloid nucleation score does the source give for SCFLNMTLILDLVITGMMPR here?
Its amyloid nucleation score is -0.251 ± 0.32.

For SCFSIFMLIPSSATAIFSQI, which amyloid nucleation score is on record?
The amyloid nucleation score was -1.27 ± 1.

With SCGVDCSVSGC as the substance, how does the amyloid nucleation score read?
Its amyloid nucleation score is 0.903 ± 0.57.

With SCIDCLRLSLLSGCIHWVNY as the substance, how does the amyloid nucleation score read?
Its amyloid nucleation score is 0.509 ± 0.8.

For SCLTDQDERPGLWELSCRYM, which amyloid nucleation score is on record?
Its amyloid nucleation score is 1.1 ± 0.34.

Which amyloid nucleation score does the source give for SCMSFVLKFPQTLSVWVCWG here?
The amyloid nucleation score was 4.97 ± 0.072.

With SCNRRSSVVPWWWLTFRRWN as the substance, how does the amyloid nucleation score read?
Its amyloid nucleation score is -1.16 ± 1.1.

With SCRDNIRGQRLGHHAGLWSR as the substance, how does the amyloid nucleation score read?
The amyloid nucleation score was 0.479 ± 0.2.

With SCRNCSQSVSLGGSSKPRQV as the substance, how does the amyloid nucleation score read?
Its amyloid nucleation score is 0.455 ± 0.4.

Which amyloid nucleation score does the source give for SCSISGMVVWDRMVKLSLSL here?
Its amyloid nucleation score is -0.317 ± 0.48.

With SCSVGRNKMWILVLVVVWGE as the substance, how does the amyloid nucleation score read?
The amyloid nucleation score was 0.035 ± 0.54.

With SCVCVMSYQLNVWRKHDSCI as the substance, how does the amyloid nucleation score read?
Its amyloid nucleation score is 4.606 ± 0.035.

For SCVGTN, which amyloid nucleation score is on record?
Its amyloid nucleation score is -0.062 ± 0.55.

With SCYRFSRSRS as the substance, how does the amyloid nucleation score read?
The amyloid nucleation score was -0.359 ± 0.49.

With SDARPYWIIYMSNQPYGIDS as the substance, how does the amyloid nucleation score read?
Its amyloid nucleation score is “inactive”.

With SDEIECCKYFFGYL as the substance, how does the amyloid nucleation score read?
The amyloid nucleation score was 5.347 ± 0.047.

Which amyloid nucleation score does the source give for SDERSGFRTSVRG here?
The amyloid nucleation score was 0.479 ± 0.29.

With SDEVVVFRRDMSGCHEFVLV as the substance, how does the amyloid nucleation score read?
Its amyloid nucleation score is 1.12 ± 0.27.

Which amyloid nucleation score does the source give for SDFIPGKMCLNCLWWFVPTR here?
The amyloid nucleation score was -0.496 ± 0.36.

Which amyloid nucleation score does the source give for SDISNQLMFFGRWAPRVLVD here?
Its amyloid nucleation score is -0.35 ± 1.1.

For SDLVLKSLFDVVARRL, which amyloid nucleation score is on record?
The amyloid nucleation score was -0.072 ± 0.35.

For SDPHMHD, which amyloid nucleation score is on record?
Its amyloid nucleation score is 0.521 ± 0.25.

For SDTSVRGLLLEVCRWSGWVA, which amyloid nucleation score is on record?
The amyloid nucleation score was 1.33 ± 0.35.

Which amyloid nucleation score does the source give for SDVRVLNDQKSGVFC here?
Its amyloid nucleation score is 0.706 ± 0.15.

For SDYVYKFSVAWWVPVSSVVK, which amyloid nucleation score is on record?
Its amyloid nucleation score is 0.701 ± 0.38.

Which amyloid nucleation score does the source give for SEGLG here?
Its amyloid nucleation score is 3.53 ± 0.063.

Which amyloid nucleation score does the source give for SEPKEVCLVIGGEEYKGVVS here?
The amyloid nucleation score was 0.364 ± 0.37.

For SFCKCLVVALVDVWNRCLPW, which amyloid nucleation score is on record?
The amyloid nucleation score was 4.68 ± 0.051.

Which amyloid nucleation score does the source give for SFCVALFSWSVYVTIRVHYR here?
Its amyloid nucleation score is -0.545 ± 0.79.

With SFCYLLSTISVTIALVKTRG as the substance, how does the amyloid nucleation score read?
Its amyloid nucleation score is -0.271 ± 0.5.

With SFDCKVMVFCAMRYNLRIMS as the substance, how does the amyloid nucleation score read?
The amyloid nucleation score was -1 ± 0.5.

Which amyloid nucleation score does the source give for SFDLAVTECIALCFRCYQVF here?
Its amyloid nucleation score is -1.04 ± 0.39.

With SFDVYVEARLMDSVTGLDRI as the substance, how does the amyloid nucleation score read?
The amyloid nucleation score was 0.437 ± 0.32.

For SFDWWASHRTIVY, which amyloid nucleation score is on record?
The amyloid nucleation score was -0.217 ± 0.42.

With SFEFVACVVMYMCCRTMFIL as the substance, how does the amyloid nucleation score read?
Its amyloid nucleation score is -0.164 ± 0.24.

With SFFMEDQCTRPLVWEVRVFN as the substance, how does the amyloid nucleation score read?
Its amyloid nucleation score is 0.049 ± 1.1.

Which amyloid nucleation score does the source give for SFGCINTCFCMCSCFVREMD here?
The amyloid nucleation score was 1.5 ± 0.14.

With SFGHATLYSFH as the substance, how does the amyloid nucleation score read?
Its amyloid nucleation score is -0.058 ± 0.65.

Which amyloid nucleation score does the source give for SFHFCWFRYNWCYFGLS here?
The amyloid nucleation score was 0.058 ± 1.

With SFHLS as the substance, how does the amyloid nucleation score read?
The amyloid nucleation score was -0.019 ± 0.6.

Which amyloid nucleation score does the source give for SFIHDWTNFHGSLGFDYGCD here?
The amyloid nucleation score was 0.112 ± 1.1.

Which amyloid nucleation score does the source give for SFIHFPFWFILHNRALTRRV here?
Its amyloid nucleation score is 0.057 ± 1.1.

For SFKVMYKENNTNLGSLLWDG, which amyloid nucleation score is on record?
The amyloid nucleation score was 0.049 ± 0.21.

With SFLFMKSTIRFIEL as the substance, how does the amyloid nucleation score read?
The amyloid nucleation score was -1.34 ± 0.36.

Which amyloid nucleation score does the source give for SFLRARLCCHMMGHSTLKYH here?
The amyloid nucleation score was -0.72 ± 1.1.

With SFLSRL as the substance, how does the amyloid nucleation score read?
Its amyloid nucleation score is -0.4 ± 0.65.

For SFLVSFHPMS, which amyloid nucleation score is on record?
Its amyloid nucleation score is -1.33 ± 0.48.

Which amyloid nucleation score does the source give for SFNVSTMRLQIVSVLRKSRR here?
The amyloid nucleation score was 0.236 ± 1.1.

Which amyloid nucleation score does the source give for SFNVYRASGVKVRQWAFHGG here?
Its amyloid nucleation score is 0.076 ± 0.61.

For SFSNTAAYAKEYCRSYWVLV, which amyloid nucleation score is on record?
The amyloid nucleation score was “inactive”.

With SFSRYF as the substance, how does the amyloid nucleation score read?
Its amyloid nucleation score is -1.58 ± 0.75.

Which amyloid nucleation score does the source give for SFTAHTSIHASNLYTDLLLC here?
Its amyloid nucleation score is 3.41 ± 0.063.

Reference: the supplement of paper PMC12042874
